# Publication PMC10786891, “Massively parallel profiling of RNA-targeting CRISPR-Cas13d”
# T1: EsCas13d, nuclease-dead (Eubacterium siraeum, UniProt B0MS50, R295A;H300A;R849A;H854A)
# T1 sequence: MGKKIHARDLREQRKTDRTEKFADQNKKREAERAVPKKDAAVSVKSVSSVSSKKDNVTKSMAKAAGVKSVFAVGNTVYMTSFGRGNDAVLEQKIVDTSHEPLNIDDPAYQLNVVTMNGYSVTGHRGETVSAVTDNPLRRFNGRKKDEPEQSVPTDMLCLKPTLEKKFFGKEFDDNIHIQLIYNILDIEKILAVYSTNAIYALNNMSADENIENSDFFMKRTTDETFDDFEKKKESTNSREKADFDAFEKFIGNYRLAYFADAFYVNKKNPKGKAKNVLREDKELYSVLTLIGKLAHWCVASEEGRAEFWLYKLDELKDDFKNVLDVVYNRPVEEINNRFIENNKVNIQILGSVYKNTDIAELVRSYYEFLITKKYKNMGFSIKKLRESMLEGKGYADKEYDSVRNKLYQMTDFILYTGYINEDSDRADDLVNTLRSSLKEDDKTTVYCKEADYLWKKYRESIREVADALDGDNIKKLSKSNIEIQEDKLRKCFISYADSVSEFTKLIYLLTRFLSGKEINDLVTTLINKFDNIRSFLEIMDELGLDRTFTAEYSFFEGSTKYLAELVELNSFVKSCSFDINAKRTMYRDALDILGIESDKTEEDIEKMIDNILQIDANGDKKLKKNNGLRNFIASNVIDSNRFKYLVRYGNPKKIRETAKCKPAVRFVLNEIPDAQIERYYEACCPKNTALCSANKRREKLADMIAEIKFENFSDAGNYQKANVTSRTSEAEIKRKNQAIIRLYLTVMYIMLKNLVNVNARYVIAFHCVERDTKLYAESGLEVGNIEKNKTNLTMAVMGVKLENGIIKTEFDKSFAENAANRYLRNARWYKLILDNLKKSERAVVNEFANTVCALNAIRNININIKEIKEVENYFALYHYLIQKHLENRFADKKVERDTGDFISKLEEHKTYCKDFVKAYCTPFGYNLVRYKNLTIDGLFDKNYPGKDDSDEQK
# Target: T1, EsCas13d, nuclease-dead
# Test: crRNA (strand 1, pre-loaded); Mg2+; 40 mM Tris-HCl pH 7.5, 150 mM NaCl, 6 mM MgCl2, 1 mM DTT, 0.1% Tween-20, 0.2 mg/ml BSA; 25 C; 10 min per concentration, then washed
# Settings: tags: His6-TwinStrep-SUMO cleaved; N-terminal SNAP kept (SNAP-Surface 488); label: 3' end held by stalled T7 RNA polymerase
row,Binder,Kd
1,"target 1 U11A,A16G (mixed) RNA 1: CACCCGUGCAAAAAUGCAGGGGUCUAAAACUGAGCGGAUAACCUCUCUAUGG RNA 2: GGGAAUGGAUCCACAUCUACGAAUUCGUACCAUAGGGAGGAUAUCCGCUCACCGAGAUCGGAAGAGCACACGU",77 ± 15 nM
2,"target 1 insA 3' of 21,insC 3' of 20 (mixed) RNA 1: CACCCGUGCAAAAAUGCAGGGGUCUAAAACUGAGCGGAUAACCUCUCUAUGG RNA 2: GGGAAUGGAUCCACAUCUACGAAUUCGUACCAACUAGAGAGGUUAUCCGCUCACCGAGAUCGGAAGAGCACACGU",10 ± 0.5 nM
3,target 2 MT 5'PFS CGG 3'PFS ACA (mixed) RNA 1: CACCCGUGCAAAAUUGCAGGGGUCUAAAACCUUCUCCAAAUUGUUUCAUCCU RNA 2: GGGAAUGGAUCCACAUCUACGAAUUCCGGAGGAUGAAACAAUUUGGAGAAGACAAGAUCGGAAGAGCACACGU,5 ± 0.5 nM
4,target 2 MT 5'PFS AGG 3'PFS CCG (mixed) RNA 1: CACCCGUGCAAAAUUGCAGGGGUCUAAAACCUUCUCCAAAUUGUUUCAUCCU RNA 2: GGGAAUGGAUCCACAUCUACGAAUUCAGGAGGAUGAAACAAUUUGGAGAAGCCGAGAUCGGAAGAGCACACGU,8.2 ± 0.9 nM
5,target 2 MT 5'PFS CAC 3'PFS UGU (mixed) RNA 1: CACCCGUGCAAAAUUGCAGGGGUCUAAAACCUUCUCCAAAUUGUUUCAUCCU RNA 2: GGGAAUGGAUCCACAUCUACGAAUUCCACAGGAUGAAACAAUUUGGAGAAGUGUAGAUCGGAAGAGCACACGU,2.27 ± 0.29 nM
6,target 2 MT 5'PFS UCU 3'PFS ACA (mixed) RNA 1: CACCCGUGCAAAAUUGCAGGGGUCUAAAACCUUCUCCAAAUUGUUUCAUCCU RNA 2: GGGAAUGGAUCCACAUCUACGAAUUCUCUAGGAUGAAACAAUUUGGAGAAGACAAGAUCGGAAGAGCACACGU,9.2 ± 1.9 nM
7,target 2 MT 5'PFS GGU 3'PFS UUU (mixed) RNA 1: CACCCGUGCAAAAUUGCAGGGGUCUAAAACCUUCUCCAAAUUGUUUCAUCCU RNA 2: GGGAAUGGAUCCACAUCUACGAAUUCGGUAGGAUGAAACAAUUUGGAGAAGUUUAGAUCGGAAGAGCACACGU,68 ± 20 nM
8,target 2 MT 5'PFS AGG 3'PFS CCU (mixed) RNA 1: CACCCGUGCAAAAUUGCAGGGGUCUAAAACCUUCUCCAAAUUGUUUCAUCCU RNA 2: GGGAAUGGAUCCACAUCUACGAAUUCAGGAGGAUGAAACAAUUUGGAGAAGCCUAGAUCGGAAGAGCACACGU,40 ± 15 nM
9,target 2 MT 5'PFS GGC 3'PFS CCG (mixed) RNA 1: CACCCGUGCAAAAUUGCAGGGGUCUAAAACCUUCUCCAAAUUGUUUCAUCCU RNA 2: GGGAAUGGAUCCACAUCUACGAAUUCGGCAGGAUGAAACAAUUUGGAGAAGCCGAGAUCGGAAGAGCACACGU,17.1 ± 3 nM
10,target 2 MT 5'PFS CUG 3'PFS UUA (mixed) RNA 1: CACCCGUGCAAAAUUGCAGGGGUCUAAAACCUUCUCCAAAUUGUUUCAUCCU RNA 2: GGGAAUGGAUCCACAUCUACGAAUUCCUGAGGAUGAAACAAUUUGGAGAAGUUAAGAUCGGAAGAGCACACGU,4.7 ± 0.4 nM
11,target 2 MT 5'PFS ACC 3'PFS AGA (mixed) RNA 1: CACCCGUGCAAAAUUGCAGGGGUCUAAAACCUUCUCCAAAUUGUUUCAUCCU RNA 2: GGGAAUGGAUCCACAUCUACGAAUUCACCAGGAUGAAACAAUUUGGAGAAGAGAAGAUCGGAAGAGCACACGU,7.9 ± 3.1 nM
12,target 2 MT 5'PFS GCU 3'PFS CAU (mixed) RNA 1: CACCCGUGCAAAAUUGCAGGGGUCUAAAACCUUCUCCAAAUUGUUUCAUCCU RNA 2: GGGAAUGGAUCCACAUCUACGAAUUCGCUAGGAUGAAACAAUUUGGAGAAGCAUAGAUCGGAAGAGCACACGU,9.8 ± 2.5 nM
13,target 2 MT 5'PFS GUC 3'PFS AUG (mixed) RNA 1: CACCCGUGCAAAAUUGCAGGGGUCUAAAACCUUCUCCAAAUUGUUUCAUCCU RNA 2: GGGAAUGGAUCCACAUCUACGAAUUCGUCAGGAUGAAACAAUUUGGAGAAGAUGAGAUCGGAAGAGCACACGU,15.6 ± 1.9 nM
14,target 2 MT 5'PFS GUC 3'PFS AUA (mixed) RNA 1: CACCCGUGCAAAAUUGCAGGGGUCUAAAACCUUCUCCAAAUUGUUUCAUCCU RNA 2: GGGAAUGGAUCCACAUCUACGAAUUCGUCAGGAUGAAACAAUUUGGAGAAGAUAAGAUCGGAAGAGCACACGU,12.6 ± 1.6 nM
15,target 2 MT 5'PFS CGG 3'PFS UUA (mixed) RNA 1: CACCCGUGCAAAAUUGCAGGGGUCUAAAACCUUCUCCAAAUUGUUUCAUCCU RNA 2: GGGAAUGGAUCCACAUCUACGAAUUCCGGAGGAUGAAACAAUUUGGAGAAGUUAAGAUCGGAAGAGCACACGU,7 ± 1 nM
16,target 2 MT 5'PFS CGG 3'PFS UUG (mixed) RNA 1: CACCCGUGCAAAAUUGCAGGGGUCUAAAACCUUCUCCAAAUUGUUUCAUCCU RNA 2: GGGAAUGGAUCCACAUCUACGAAUUCCGGAGGAUGAAACAAUUUGGAGAAGUUGAGAUCGGAAGAGCACACGU,6.5 ± 0.7 nM
17,target 2 MT 5'PFS CGG 3'PFS UUC (mixed) RNA 1: CACCCGUGCAAAAUUGCAGGGGUCUAAAACCUUCUCCAAAUUGUUUCAUCCU RNA 2: GGGAAUGGAUCCACAUCUACGAAUUCCGGAGGAUGAAACAAUUUGGAGAAGUUCAGAUCGGAAGAGCACACGU,10.8 ± 1.7 nM
18,target 2 MT 5'PFS GUA 3'PFS ACU (mixed) RNA 1: CACCCGUGCAAAAUUGCAGGGGUCUAAAACCUUCUCCAAAUUGUUUCAUCCU RNA 2: GGGAAUGGAUCCACAUCUACGAAUUCGUAAGGAUGAAACAAUUUGGAGAAGACUAGAUCGGAAGAGCACACGU,15.9 ± 2.7 nM
19,target 2 MT 5'PFS GUC 3'PFS AUC (mixed) RNA 1: CACCCGUGCAAAAUUGCAGGGGUCUAAAACCUUCUCCAAAUUGUUUCAUCCU RNA 2: GGGAAUGGAUCCACAUCUACGAAUUCGUCAGGAUGAAACAAUUUGGAGAAGAUCAGAUCGGAAGAGCACACGU,13.5 ± 1.2 nM
20,target 2 MT 5'PFS CUG 3'PFS UUU (mixed) RNA 1: CACCCGUGCAAAAUUGCAGGGGUCUAAAACCUUCUCCAAAUUGUUUCAUCCU RNA 2: GGGAAUGGAUCCACAUCUACGAAUUCCUGAGGAUGAAACAAUUUGGAGAAGUUUAGAUCGGAAGAGCACACGU,5.5 ± 0.5 nM
21,target 2 MT 5'PFS GGC 3'PFS CCA (mixed) RNA 1: CACCCGUGCAAAAUUGCAGGGGUCUAAAACCUUCUCCAAAUUGUUUCAUCCU RNA 2: GGGAAUGGAUCCACAUCUACGAAUUCGGCAGGAUGAAACAAUUUGGAGAAGCCAAGAUCGGAAGAGCACACGU,16.9 ± 2.7 nM
22,target 2 MT 5'PFS CUA 3'PFS CUU (mixed) RNA 1: CACCCGUGCAAAAUUGCAGGGGUCUAAAACCUUCUCCAAAUUGUUUCAUCCU RNA 2: GGGAAUGGAUCCACAUCUACGAAUUCCUAAGGAUGAAACAAUUUGGAGAAGCUUAGAUCGGAAGAGCACACGU,4 ± 0.8 nM
23,target 2 MT 5'PFS UGG 3'PFS CGA (mixed) RNA 1: CACCCGUGCAAAAUUGCAGGGGUCUAAAACCUUCUCCAAAUUGUUUCAUCCU RNA 2: GGGAAUGGAUCCACAUCUACGAAUUCUGGAGGAUGAAACAAUUUGGAGAAGCGAAGAUCGGAAGAGCACACGU,5.4 ± 0.8 nM
24,target 2 MT 5'PFS CUG 3'PFS UUG (mixed) RNA 1: CACCCGUGCAAAAUUGCAGGGGUCUAAAACCUUCUCCAAAUUGUUUCAUCCU RNA 2: GGGAAUGGAUCCACAUCUACGAAUUCCUGAGGAUGAAACAAUUUGGAGAAGUUGAGAUCGGAAGAGCACACGU,5.8 ± 0.9 nM
25,target 2 MT 5'PFS GGU 3'PFS UUC (mixed) RNA 1: CACCCGUGCAAAAUUGCAGGGGUCUAAAACCUUCUCCAAAUUGUUUCAUCCU RNA 2: GGGAAUGGAUCCACAUCUACGAAUUCGGUAGGAUGAAACAAUUUGGAGAAGUUCAGAUCGGAAGAGCACACGU,73 ± 28 nM
26,target 2 MT 5'PFS CAU 3'PFS UCU (mixed) RNA 1: CACCCGUGCAAAAUUGCAGGGGUCUAAAACCUUCUCCAAAUUGUUUCAUCCU RNA 2: GGGAAUGGAUCCACAUCUACGAAUUCCAUAGGAUGAAACAAUUUGGAGAAGUCUAGAUCGGAAGAGCACACGU,4.7 ± 0.7 nM
27,target 2 MT 5'PFS CUG 3'PFS UUC (mixed) RNA 1: CACCCGUGCAAAAUUGCAGGGGUCUAAAACCUUCUCCAAAUUGUUUCAUCCU RNA 2: GGGAAUGGAUCCACAUCUACGAAUUCCUGAGGAUGAAACAAUUUGGAGAAGUUCAGAUCGGAAGAGCACACGU,7.3 ± 1.4 nM
28,target 2 MT 5'PFS UUU 3'PFS AGG (mixed) RNA 1: CACCCGUGCAAAAUUGCAGGGGUCUAAAACCUUCUCCAAAUUGUUUCAUCCU RNA 2: GGGAAUGGAUCCACAUCUACGAAUUCUUUAGGAUGAAACAAUUUGGAGAAGAGGAGAUCGGAAGAGCACACGU,4.9 ± 0.6 nM
